# Assay results from patent CN107827984A (ZHANG HUILIN; ZHU JIN, dated 2018).
# Legend:
# [1] = molecular target: T1, 重组人ROR1蛋白 (北京义翘神州, 产品编号13968-H08H) (human, UniProt Q01973 30-403); assay: ELISA, ROR1 coated at 0.5 μg/mL, Fab from 200 μg/mL in 11 dilutions, goat anti-human Fab secondary, OD450
# T1 construct: Bought protein; also called recombinant human ROR1 protein
# [2] = molecular target: ROR1天然抗原 (人卵巢癌细胞系A2780) (human) (UniProt Q01973); assay: flow cytometry on A2780 cells, Fab at 30 μg/mL, FITC goat anti-human Fab secondary
# T1 sequence (Q01973 30-403 limits assumed): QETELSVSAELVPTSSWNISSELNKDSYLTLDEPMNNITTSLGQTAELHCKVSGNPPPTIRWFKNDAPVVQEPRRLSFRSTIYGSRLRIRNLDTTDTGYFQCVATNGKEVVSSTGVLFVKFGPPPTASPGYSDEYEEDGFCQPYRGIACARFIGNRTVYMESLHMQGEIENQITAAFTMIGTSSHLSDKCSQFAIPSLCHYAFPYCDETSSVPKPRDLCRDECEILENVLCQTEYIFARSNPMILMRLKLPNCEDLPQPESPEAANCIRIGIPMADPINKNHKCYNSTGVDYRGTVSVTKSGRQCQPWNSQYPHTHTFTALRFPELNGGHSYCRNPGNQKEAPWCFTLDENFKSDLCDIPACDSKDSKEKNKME
binder,measurement,setting,value
"嵌合抗ROR1抗体Fab分子 (Fab, V domains shown, Human-mouse chimeric Fab, L and Fd joined by an interchain disulfide; also called 抗ROR1抗体人鼠嵌合Fab分子; 抗ROR1抗体嵌合Fab分子) VH: EVQLVQSGGGLVQPKGSLKLSCAASGFTFNTYAMNWVRQAPGKGLEWVARIRSKSNNYATYYADSVKDRFTISRDDSQSMLYLQMNNLKTEDTAMYYCVSPAYYGNYVGFAYWGQGTLVTVSA VL: ELVMTQSPTTMAASPGEKITFTCSASSSISSTYLHWFQQKPGFSPKLLIYRTSNLASGVPARFSGSGSGTSYSLTIGTMEAEDVATYYCQQGSSLPFTFGSGTKLEIKG",binding result,[1],binds
same,结合率,[2],97.4%
